The record followed here is PMC3927129.

The target in assay [1] is membranous subcomplex VO (ICL12) of the Thermus thermophilus rotary ATPase (Thermus thermophilus) (UniProt P74902). The assay can be described thus: native MS.
The target of assay [2] is subunit L of the Thermus thermophilus rotary ATPase (L12 membrane ring) (Thermus thermophilus). The assay can be described thus: native MS.

By stoichiometry N is commonly meant the number of molecules, sites or subunits per partner or assembly. Consider “peripheral stalk (subunits E and G) of the Thermus thermophilus rotary ATPase (from UniProt P74901 1-188) (complex)”, for which the stoichiometry N in assay [1] worked out at 2. In the case of “subunit L of the Thermus thermophilus rotary ATPase (L12 membrane ring) (natural protein)”, the stoichiometry N in assay [2] stood at 12.
